A short description of assay [1]: Michaelis-Menten enzyme kinetics of the SSL-1 reaction (3H-FPP to PSPP). Type of assay: biochemical. The following applies: after acid phosphatase dephosphorylation. The protocol:
FIG. 5 depicts Michaelis-Menten enzyme kinetics of the SSL-1 reaction. Enzyme assays (50 μl) were set up as described in the methods section with purified SSL-1 (0.2-1.0 μg), 0.1% triton X-100, ±2 mM NADPH, and the indicated concentration of ^3H-FPP. Assays were incubated for 15 min at 37° C. and stopped by addition of 50 μl 0.5 M EDTA. The reactions were then extracted 3× with 200 μl water saturated 1-butanol and pooled in a 4 ml glass screw cap vial. […] The standards were visualized with iodine vapors and the zones corresponding to FOH (rf=0.65) and PSOH (rf=0.45) were scraped and analyzed by scintillation spectroscopy. […] The data was analyzed using the SigmaPlot Enzyme Kinetics 1.3 software. […]
Typical enzyme assays were initiated by mixing aliquots of purified enzyme with 50 mM Mops, pH 7.3, 20 mM MgCl2, 2.5 mM 2-mercaptoethanol, 10 μM [1-^3H]-FPP (˜2×10^5 dpm total), and 2 mM NADPH in total reaction volume of 50 μl. […] The standards were visualized with iodine vapors and TLC zones corresponding to the standards were scrapped and analyzed by scintillation spectrometry. […] Extracts were resuspended in 50 μl hexane and an aliquot analyzed by GC-MS with a Varian CP-3800 GC coupled to a Varian Saturn 2200 MS/MS (Varian Medical Systems) using a Supelco SLB-5 ms fused silica capillary column (30 m×0.25 mm×0.25 μM film thickness, Supelco). […]

A short description of assay [2]: Purified SSL-1 mixed with B. braunii algal cell-free lysate, incorporation of radiolabeled FPP into botryococcene. Type of assay: biochemical, Botryococcus braunii. The following applies: purified SSL-1 mixed with algal cell-free lysate. The protocol: FIG. 4 depicts the dependence of the squalene synthase-like-1 enzyme on algal lysate for botryococcene biosynthesis. […] The SSL-1 gene containing a 5′ terminal sequence coding for a hexa-histidine tag was over-expressed in E. coli and the corresponding enzyme purified by cobalt affinity chromatography according to the manufacturer (Sigma). B. braunii lysate was prepared from cells collected at the indicated stages of culture development according to the procedure described by Okada, S. et al. (Arch Biochem Biophys 422: 110-118) and 10 μg of lysate protein was used per assay. Assays were incubated at 37° C. for 1 h, then the reaction products extracted with hexane. Aliquots of the hexane extracts was separated by silica TLC and the radioactivity migrating to zones corresponding to authentic standards of botryococcene and squalene determined by scintillation counting. Data represents mean±s.e.m.
Typical enzyme assays were initiated by mixing aliquots of purified enzyme with 50 mM Mops, pH 7.3, 20 mM MgCl2, 2.5 mM 2-mercaptoethanol, 10 μM [1-^3H]-FPP (˜2×10^5 dpm total), and 2 mM NADPH in total reaction volume of 50 μl. Reactions were incubated at 37° C. for 1 h and then extracted with 100 μl n-hexane or 100 ul MTBE. […] The standards were visualized with iodine vapors and TLC zones corresponding to the standards were scrapped and analyzed by scintillation spectrometry. […]

Assay [3] can be described thus: Primary enzyme assay with 3H-FPP, PSPP content by acid phosphatase assay. Type of assay: biochemical. The following applies: 20 μg enzyme, 40 μM 3H-FPP, 37° C., 1 h. Here is the method: (§1) Two primary enzyme assays (500 μl) were set up with 20 μg of purified SSL-1 or Nicotiana benthamiana squalene synthase (TSS) plus 40 μM ^3H-FPP. The assays were incubated at 37° C. for 1 h, then extracted 3× with 500 μl water saturated 1-butanol, pooled, and evaporated under a stream of nitrogen gas. The white residue was resuspended in 50 μl of 25 mM NH4HCO3 in 70% ethanol (v/v). An aliquot of the resuspension was analyzed by the acid phosphatase assay (described in supplemental FIG. 4) and shown to consist of 45% and 40% PSPP for the SSL-1 and TSS primary incubations, respectively. […] It was calculated that 1 μl of each resuspension contained ˜150 pmoles of 3H-PSPP. […] For comparison, enzyme assays were also set up containing 3 μM ^3H-FPP, 2 mM NADPH and either 1 μg each of SSL-1 plus SSL-3, or SSL-1 plus SSL-2. Additional control assays contained 5 μM ^3H-FPP, 2 mM NADPH, and either 1 μg of SSL-3 or SSL-2. The reactions were incubated at 37° C. for 15 min, stopped by addition of 50 μl 0.5 M EDTA, and extracted with 100 μl n-hexane. Aliquots of the hexane extracts, along with standards of squalene and botryococcene, were separated by silica TLC using n-hexane as the developing solvent. Standards were visualized with iodine vapors and the corresponding zones were analyzed by scintillation spectroscopy. […]

Assay [4] is described as follows: Substrate specificity of SSL-2 (bisfarnesyl ether formation). The class given is biochemical. The following applies: 37° C., 1 h. The protocol: The radioactivity incorporated in the zones corresponding to bisfarnesyl ether were determined by scintillation counting. Data represents mean±S.E.M.
The nature of assay [5]: Secondary enzyme assays of SSL-3 or SSL-2 with PSPP versus FPP. The following applies: 2 mM NADPH, 1 μg enzyme, 37° C., 15 min. Type of assay: biochemical. The protocol: as §1

The values below come from patent publication US8822187B1, “Polypeptides, nucleic acid molecules, and methods for synthesis of triterpenes” (University of Kentucky Research Foundation, priority 2011, dated 2014).

B1: Botryococcus braunii race B squalene synthase-like 1 (SSL-1), wild type, hexa-histidine tagged, SEQ ID NO: 2 (Botryococcus braunii) (protein)
chain: MTMHQDHGVMKDLVKHPNEFPYLLQLAATTYGSPAAPIPKEPDRAFCYNTLHTVSKGFPRFVMRLPQELQDPICIFYLLLRALDTVEDDMNLKSETKISLLRVFHEHCSDRNWSMKSDYGIYADLMERFPLVVSVLEKLPPATQQTFRENVKYMGNGMADFIDKQILTVDEYDLYCHYVAGSCGIAVTKVIVQFNLATPEADSYDFSNSLGLLLQKANIITDYNEDINEEPRPRMFWPQEIWGKYAEKLADFNEPENIDTAVKCLNHMVTDAMRHIEPSLKGMVYFTDKTVFRALALLLVTAFGHLSTLYNNPNVFKEKVRQRKGRIARLVMSSRNVPGLFRTCLKLANNFESRCKQETANDPTVAMTIKRLQSIQATCRDGLAKYDTPSGLKSFCAAPTPTK
Take B1: the “input radioactivity recovered as FOH and PSOH” value in assay [1] is “greater than 95%”. For the same molecule, the “enhancement of NAD(P)H-dependent botryococcene biosynthesis” value in assay [2] is “up to 10 fold”. Also, the “PSPP share of reaction product of primary incubation” value in assay [3] is listed as 45%.

B2: SSL-2: Botryococcus braunii race B squalene synthase-like 2 enzyme; bacterial form is truncated SSL-2-tr2 (protein)
chain: MVKLVEVLQHPDEIVPILQMLHKTYRAKRSYKDPGLAFCYGMLQRVSRSFSVVIQQLPDELRHPICVFYLILRALDTVEDDMNLPNEVKIPLLRTFHEHLFDRSWKLKCGYGPYVDLMENYPLVTDVFLTLSPGAQEVIRDSTRRMGNGMADFIGKDEVHSVAEYDLYCHYVAGLVGSAVAKIFVDSGLEKENLVAEVDLANNMGQFLQKTNVIRDYLEDINEEPAPRMFWPREIWGKYAQELADFKDPANEKAAVQCLNHMVTDALRHCEIGLNVIPLLQNIGILRSCLIPEVMGLRTLTLCYNNPQVFRGVVKMRRGETAKLFMSIYDKRSFYQTYLRLANELEAKCKGEASGDPMVATTLKHVHGIQKSCKAALSSKELLAKSGSALTDDPAIRLLLLVGVVAYFAYAFNLGDVRGEHGVRALGSILDLSQKGLAVASVALLLLVLLARSRLPLLTSASSKQ
Take B2: the Bisfarnesyl ether formed in assay [4] (substrate 10 μM 1-3H-FPP) is 13.5 +/− 3.3 pmoles /h · μg protein; in assay [4] (substrate 10 μM 1-3H-farnesol), 0 pmoles /h · μg protein; in assay [4] (substrate 10 μM FPP + 10 μM 1-3H-farnesol) it was 16.3 +/− 0.4 pmoles /h · μg protein. For the same molecule, the “biosynthesis from PSPP versus FPP” value in assay [5] is “efficiently catalyze the biosynthesis of squalene and botryococcene, respectively, from PSPP but not FPP”.
